The record followed here is patent publication US20230203178A1 (SICHUAN KELUN BIOTECH BIOPHARMACEUTICAL, published 2023).

A word on the Kd: it is the equilibrium constant for the complex coming apart.

Test [1] addresses T1, BCMA expressed on target cells (CHO-K1-BCMA recombinant cell line; MM.1S; RPMI8226) (human, UniProt Q02223 1-184).
T1 sequence (looked up): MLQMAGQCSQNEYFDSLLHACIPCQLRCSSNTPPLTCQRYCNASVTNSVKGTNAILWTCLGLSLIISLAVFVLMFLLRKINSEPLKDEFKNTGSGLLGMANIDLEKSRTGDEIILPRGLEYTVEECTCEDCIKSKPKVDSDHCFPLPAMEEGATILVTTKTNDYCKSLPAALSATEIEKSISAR
As to the kind of experiment: cell-based or functional assay.

Test [2] addresses T2, CD19 expressed on Nalm6 cells (UniProt P15391 20-556, limits assumed).
T2 sequence (looked up): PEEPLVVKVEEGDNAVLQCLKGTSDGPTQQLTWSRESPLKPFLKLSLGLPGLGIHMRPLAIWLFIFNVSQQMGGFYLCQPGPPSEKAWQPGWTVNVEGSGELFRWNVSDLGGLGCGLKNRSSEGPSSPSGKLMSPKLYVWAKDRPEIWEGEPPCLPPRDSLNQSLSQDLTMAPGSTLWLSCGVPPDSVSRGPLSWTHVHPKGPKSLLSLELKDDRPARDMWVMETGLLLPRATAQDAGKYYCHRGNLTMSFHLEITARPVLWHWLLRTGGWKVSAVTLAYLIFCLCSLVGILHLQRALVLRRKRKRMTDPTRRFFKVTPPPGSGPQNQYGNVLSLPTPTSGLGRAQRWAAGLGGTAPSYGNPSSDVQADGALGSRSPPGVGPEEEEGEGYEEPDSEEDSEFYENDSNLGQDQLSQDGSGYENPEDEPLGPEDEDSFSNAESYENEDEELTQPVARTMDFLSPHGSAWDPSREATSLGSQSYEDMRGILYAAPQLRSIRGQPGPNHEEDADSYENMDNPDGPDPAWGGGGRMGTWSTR
As to the kind of experiment: cell-based or functional assay.

In a further test the target is T3, human BCMA (antigen) (human, UniProt Q02223 1-54, limits assumed).
T3 construct: Antigen coupled to the CM5 chip in SPR; also called B-cell maturation antigen; TNFRF17
T3 sequence (looked up): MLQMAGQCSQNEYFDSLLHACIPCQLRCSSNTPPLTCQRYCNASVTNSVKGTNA
As to the kind of experiment: flow cytometry of lentivirus-transduced T cells labelled with antigen, 48 h after transduction; percent positive cells. The text has this:
(§1) The nucleic acid sequence encoding the CAR was expressed under the drive of a promoter, therefore the lentivirus-transfected T cells could be labeled with an antigen or anti-CD19 antibody and measured by flow cytometry, to reflect the expression level of the CAR on the surface of the T cells.
In general terms: In flow cytometry, cells or beads pass a laser one at a time.

Test [3] concerns the target T4, human CD19 (antigen) (human, UniProt P15391 20-291, limits assumed).
T4 sequence (looked up): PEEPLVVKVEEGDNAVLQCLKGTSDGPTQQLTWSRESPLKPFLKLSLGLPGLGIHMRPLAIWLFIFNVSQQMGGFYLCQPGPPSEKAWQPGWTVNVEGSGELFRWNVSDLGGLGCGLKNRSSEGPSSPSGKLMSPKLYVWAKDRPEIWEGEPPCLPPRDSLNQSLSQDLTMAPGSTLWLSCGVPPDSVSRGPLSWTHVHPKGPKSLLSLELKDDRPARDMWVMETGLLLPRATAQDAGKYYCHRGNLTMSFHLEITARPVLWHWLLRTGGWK
As to the kind of experiment: flow cytometry of lentivirus-transduced T cells labelled with antigen or anti-CD19 antibody, 48 h after transduction; percent positive cells.
Source text: as §1

For test [4], the target named is T4, human CD19 (antigen). As to the kind of experiment: affinity determination, method not stated; humanized monoclonal antibody.

B1: TanCAR 02 (other)
chain: DIVMTQSPLSLPVTPGEPASISCRSSQSLVHSNGNTFLHWYLQKPGQSPQLLIYKVSNRFSGVPDRFSGSGSGTDFTLKISRVEAEDVGVYYCMQSTHVLTFGGGTKLEIKRAGGGGSGGGGSGGGGSQVQLVQSGAEVKKPGASVKVSCKASGYTFTDYLMHWVRQAPGQGLEWMGWINTETGEPTYADDFKGRVTMTRDTSTSTVYMELSSLRSEDTAVYYCAPSLYYGYSWFTYWGQGTLVTVSEAAAKEAAAKEAAAKQVTLRESGPALVKPTQTLTLTCTFSGVSLPDYGVSWIRQPPGKALEWLAVIWGSETTYYNSALKSRLTISKDTSKNQVVLTMTNMDPVDTATYYCAKHYYYGGSYAMDYWGQGTTVTVSSGGGGSGGGGSGGGGSEIVLTQSPATLSLSPGERATLSCRASQDISKYLNWYQQKPGQAPRLLIYHTSRLHSGIPDRFSGSGSGTDFTLTISRLEPEDIAVYYCQQGNTLPYTFGQGTKLEITTTPAPRPPTPAPTIASQPLSLRPEACRPAAGGAVHTRGLDFACDIYIWAPLAGTCGVLLLSLVITLYCKRGRKKLLYIFKQPFMRPVQTTQEEDGCSCRFPEEEEGGCELRVKFSRSADAPAYKQGQNQLYNELNLGRREEYDVLDKRRGRDPEMGGKPRRKNPQEGLYNELQKDKMAEAYSEIGMKGERRRGKGHDGLYQGLSTATKDTYDALHMQALPPR
notes: Tandem bispecific chimeric antigen receptor on human T cells; built here from its parts without the signal peptide; also called TanCAR 02 CAR-T
As to B1, in test [1], the “lysis rate of CHO-K1-BCMA-luc cells by CAR-T cells, ratio 0.25:1” value stood at 24%; the “lysis rate of CHO-K1-BCMA-luc cells by CAR-T cells, ratio 0.5:1” value stood at 35.9%; the “lysis rate of CHO-K1-BCMA-luc cells by CAR-T cells, ratio 1:1” value stood at 60.7%; the “lysis rate of CHO-K1-BCMA-luc cells by CAR-T cells, ratio 2:1” value amounted to 59%. In test [2], the “lysis rate of Nalm6-luc cells by CAR-T cells, ratio 0.25:1” value stood at 26.1%; the “lysis rate of Nalm6-luc cells by CAR-T cells, ratio 0.5:1” value stood at 49.8%; the “lysis rate of Nalm6-luc cells by CAR-T cells, ratio 1:1” value worked out at 70.1%; the “lysis rate of Nalm6-luc cells by CAR-T cells, ratio 2:1” value stood at 82.4%. Further, the “Positive rate of binding to BCMA” value with human BCMA (antigen) came to 14.1%. Besides, the “Positive rate of binding to CD19” value with human CD19 (antigen) [3] worked out at 12.7%.

B2: humanized anti-CD19 antibody (H-CD19) (antibody, V domains shown)
VH: QVTLRESGPALVKPTQTLTLTCTFSGVSLPDYGVSWIRQPPGKALEWLAVIWGSETTYYNSALKSRLTISKDTSKNQVVLTMTNMDPVDTATYYCAKHYYYGGSYAMDYWGQGTTVTVSS
VL: EIVLTQSPATLSLSPGERATLSCRASQDISKYLNWYQQKPGQAPRLLIYHTSRLHSGIPDRFSGSGSGTDFTLTISRLEPEDIAVYYCQQGNTLPYTFGQGTKLEI
notes: also called humanized monoclonal antibody
As for B2, the Kd with human CD19 (antigen) [4] is 28.4 nM.
